B1: wild-type lamin A/C fragment (residues 1–300) (domain or fragment, human, UniProt P02545 1-300, looked up)
chain: METPSQRRATRSGAQASSTPLSPTRITRLQEKEDLQELNDRLAVYIDRVRSLETENAGLRLRITESEEVVSREVSGIKAAYEAELGDARKTLDSVAKERARLQLELSKVREEFKELKARNTKKEGDLIAAQARLKDLEALLNSKEAALSTALSEKRTLEGELHDLRGQVAKLEAALGEAKKQLQDEMLRRVDAENRLQTMKEELDFQKNIYSEELRETKRRHETRLVEIDNGKQREFESRLADALQELRAQHEDQVEQYKKELEKTYSAKLDNARQSAERNSNLVGAAHEELQQSRIRID
notes: human lamin A/C, residues 1-300 (head, coil 1a, L1, coil 1b, L12 and part of coil 2); Dimer by SEC-MALS; The vector pProEx-HTa is named for the S143F construct; also called lamin 300 fragment; wild-type lamin 300 fragment; source: E. coli, purified (cobalt-Talon, TEV cleavage, HiTrap Q, SEC)
B2: S143F mutant lamin A/C fragment (residues 1–300) (domain or fragment, human, UniProt P02545 1-300, looked up)
chain: METPSQRRATRSGAQASSTPLSPTRITRLQEKEDLQELNDRLAVYIDRVRSLETENAGLRLRITESEEVVSREVSGIKAAYEAELGDARKTLDSVAKERARLQLELSKVREEFKELKARNTKKEGDLIAAQARLKDLEALLNFKEAALSTALSEKRTLEGELHDLRGQVAKLEAALGEAKKQLQDEMLRRVDAENRLQTMKEELDFQKNIYSEELRETKRRHETRLVEIDNGKQREFESRLADALQELRAQHEDQVEQYKKELEKTYSAKLDNARQSAERNSNLVGAAHEELQQSRIRID
notes: human lamin A/C, residues 1-300, with the disease mutation S143F (a genetic mutation found in patients); Vector pProEx-HTa; Ordered in the crystal: residues 29-229 and 31-229; also called S143F mutant lamin 300 fragment; Lamin S143F (residues 1–300); source: E. coli BL21 (DE3) or B834 (DE3), purified (cobalt-Talon, TEV cleavage, HiTrap Q, SEC)
B3: hexaHis-tagged lamin fragment (residues 250–400) (domain or fragment, human, UniProt P02545 250-400, looked up)
chain: AQHEDQVEQYKKELEKTYSAKLDNARQSAERNSNLVGAAHEELQQSRIRIDSLSAQLSQLQKQLAAKEAKLRDLEDSLARERDTSRRLLAEKEREMAEMRARMQQQLDEYQELLDIKLALDMEIHAYRKLLEGEEERLRLSPSPTSQRSRG
notes: human lamin A/C, residues 250-400 (C-terminal fragment of coil 2); also called His-lamin 2 C fragment; lamin 2 C fragment; source: E. coli, purified

Assays:
[1] = molecular target: the molecule itself; assay: SEC-MALS; 2 mg/mL sample on Superdex 200 Increase 10/300 GL, 20 mM Tris-HCl (pH 7.5), 150 mM NaCl
[2] = molecular target: B2; assay: pull-down; hexaHis-tagged lamin 250–400 immobilised on Ni-NTA resin as bait, tagless lamin 300 fragments as prey; 20 mM Tris-HCl (pH 8.0), 50 mM or 150 mM NaCl, 20 mM imidazole in the wash, room temperature, 30 min; SDS-PAGE; conditions: both partners purified
[3] = molecular target: B1; assay: as above; conditions: both partners purified

Binder | stoichiometry N [1] | binding result [2] | binding result [3]
B1 | 2 | – | –
B2 | 2 | – | –
B3 | – | binds | binds

From PMC8956589, “Crystal structure of progeria mutant S143F lamin A/C reveals increased hydrophobicity driving nuclear deformation” (Communications Biology, 2022)
